{"source": "patent US20020123091", "tested_on": "PRO256 polypeptide", "sequence (chain, as listed by the source)": "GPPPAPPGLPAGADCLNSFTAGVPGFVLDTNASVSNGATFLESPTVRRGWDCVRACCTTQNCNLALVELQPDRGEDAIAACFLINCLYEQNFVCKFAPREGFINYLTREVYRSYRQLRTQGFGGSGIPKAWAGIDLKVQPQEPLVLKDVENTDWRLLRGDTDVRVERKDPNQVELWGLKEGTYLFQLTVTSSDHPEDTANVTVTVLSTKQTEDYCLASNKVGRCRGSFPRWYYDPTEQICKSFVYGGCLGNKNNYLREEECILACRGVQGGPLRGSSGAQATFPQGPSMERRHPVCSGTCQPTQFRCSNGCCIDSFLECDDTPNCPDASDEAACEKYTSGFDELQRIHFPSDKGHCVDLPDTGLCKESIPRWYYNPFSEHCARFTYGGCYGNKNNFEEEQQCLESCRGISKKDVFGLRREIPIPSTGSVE"}
{"substance": "human kallikrein (Haematologic Technologies)", "values": [{"measurement": "kallikrein (40 nM) conversion of ^125I-scHGF into its two chain form, SDS-PAGE/autoradiography, PRO256 at 1 µM", "result": "In the presence of PRO256, kallikrein conversion of ^125I-scHGF into its two chain form is inhibited over the 4 hour incubation period compared with the control."}]}
